This is an account of results in PMC6101547 (Nucleic Acids Research, 2018).

In series [1] the target is T1, Rim1 (mitochondrial SSB) (Saccharomyces cerevisiae, UniProt P32445 17-135).
T1 sequence: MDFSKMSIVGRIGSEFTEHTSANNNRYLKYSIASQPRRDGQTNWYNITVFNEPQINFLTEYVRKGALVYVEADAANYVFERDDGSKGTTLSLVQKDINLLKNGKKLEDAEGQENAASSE
In words: FRET titration.

For series [2], the target named is T1, Rim1 (mitochondrial SSB). In words: Cy3 fluorescence titration.
Series [3] deals with T1, Rim1 (mitochondrial SSB). In words: FRET titration. This is another data set of the same source.
For series [4], the target named is T1, Rim1 (mitochondrial SSB). In words: Cy3 fluorescence titration. The source holds these as a separate data set.
Series [5] deals with T1, Rim1 (mitochondrial SSB). In words: FRET titration. This is another data set of the same source.
In a further series the target is T2, Rim1 Y85H (Saccharomyces cerevisiae, UniProt P32445 17-135, Y85H).
T2 sequence: T1 sequence with Y69H
In words: sedimentation equilibrium.

The target in series [6] is T1, Rim1 (mitochondrial SSB). In words: sedimentation equilibrium.
Series [7] deals with T1, Rim1 (mitochondrial SSB). In words: Cy3 fluorescence titration. This is another data set of the same source.
Series [8] deals with the molecule itself. In words: AUC.
Series [9] deals with the molecule itself. In words: AUC. This is another data set of the same source.
Series [10] concerns the molecule itself. In words: AUC. The source holds these as a separate data set.
Series [11] deals with T1, Rim1 (mitochondrial SSB). In words: Cy3 fluorescence titration. The source holds these as a separate data set.

Changes are numbered by the printed parent chain. Names may count otherwise. Like-named read-outs stand apart in the source and are kept apart here.

For TTTTTTTTTTTTTTTTTTTTTTTTTTTTTTTTTTTTTTTTTTTTTT (ssDNA, internal Cy3 before last T) [Cy5.5-dT45-Cy3-T], the binding result in the series with Rim1 (mitochondrial SSB) [1] is on record as “binds”.

As for TTTTTTTTTTTTTTTTTTTTTTTTTTTTTTTTTTTTTTT (ssDNA, internal Cy3 before last T) [dT38-Cy3-T], the binding result with Rim1 (mitochondrial SSB) [2] is on record as “binds”.

Consider TTTTTTTTTTTTTTTTTTTTTTTTTTTTTTTTTTTTTTTTT (ssDNA, internal Cy3 before last T) [Cy5.5-dT40-Cy3-T], for which, in the series with Rim1 (mitochondrial SSB) [3], the binding result is recorded as “binds”.

Turning to TTTTTTTTTTTTTTTTTTTTTTTTTTTTT (ssDNA, internal Cy3 before last T) [dT28-Cy3-T], the binding result in the series with Rim1 (mitochondrial SSB) [4] is given as “binds”.

B1: Cy5-dT68-Cy3-T (ssDNA)
DNA: TTTTTTTTTTTTTTTTTTTTTTTTTTTTTTTTTTTTTTTTTTTTTTTTTTTTTTTTTTTTTTTTTTTTT
modifications: internal Cy3 before last T
For B1, the binding result in the series with Rim1 (mitochondrial SSB) [5] is “binds”. Consider TTTTTTTTTTTTTTT (ssDNA) [Cy3-labeled dT15 (AUC)], for which the binding result in the series with Rim1 Y85H and with Rim1 (mitochondrial SSB) [6] was “binds” throughout.

For the molecule TTTTTTTTTTTTTTTTTTTTT (ssDNA, internal Cy3 before last T) [dT20-Cy3-T], the binding result in the series with Rim1 (mitochondrial SSB) [7] is “binds”.

B2: Rim1 harboring the mutation Y85H (amino acids 17-135) (natural protein, S. cerevisiae, UniProt P32445 17-135, looked up)
chain: T1 sequence with Y69H
For B2, the “stoichiometry N” value was found to be 2 in “AUC [8]” and 4 in “AUC [9]”.

B3: Human mitochondrial SSB, mitochondrial form (amino acids 17-148) (natural protein, UniProt Q04837 17-148, looked up)
chain: ESETTTSLVLERSLNRVHLLGRVGQDPVLRQVEGKNPVTIFSLATNEMWRSGDSEVYQLGDVSQKTTWHRISVFRPGLRDVAYQYVKKGSRIYLEGKIDYGEYMDKNNVRRQATTIIADNIIFLSDQTKEKE
Regarding B3, in the series “AUC [10]”, the binding result is given as “binds”. With TTTTTTTTTTTTTTTT (ssDNA, internal Cy3 before last T) [dT15-Cy3-T], in the series with Rim1 (mitochondrial SSB) [11], the binding result is given as “binds”. With TTTTTTTTTTTTTTTTTTTT (ssDNA) [Cy3-labeled dT20 (AUC)], the binding result with Rim1 Y85H was “binds”.
